Variants at the floor of the assay were thinned out.
B1: TPR 5TU (parent)
chain: GGAUCUUCUCGAUCUAACAAAAAAGACAAAUCUGCCACAAAGCUUGAGAGCAUCUUCGGAUGCAGAGGCGGCAGCCUUCGGUGGCGCGAUAGCGCCAACGUUCUCAACUAUGACACGCAAAACGCGUGCUCCGUUGAAUGGAGUUUAUCAUG

Variants of: B1
Assay: polymerase ribozyme fitness, log enrichment relative to wild type (log ratio); higher = more active; in vitro selection for triplet polymerase activity
In short: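 A heterodimeric triplet polymerase ribozyme had each of its subunits mutagenized by PCR into a library, which was transcribed. One round of in vitro selection, done in triplicate, annealed each library with a biotinylated primer, its partner subunit and triplets, then incubated it frozen at −7 °C before gel excision of extended constructs, streptavidin-bead capture and RT-PCR. Fitness is the logarithm of genotype enrichment relative to wild-type enrichment, based on Illumina sequencing of inputs and outputs and inverse-variance-weighted replicate averages. A base-2 logarithm is used, and genotypes were kept only with ≥10 input reads and ≥1 read per output.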

Variant | polymerase ribozyme fitness (log ratio)
GGAUCUUCUCGAUAUAACAAAAAAGACAAAUCUGCCUCAAAGCUUGAGAUCAUCUUCGGAUGCAGAGGCGGCAGCCUUCGGUGGCGCGAUAGCUCCAACGUUCUCUACUAUGACACGCAAAACGCGUGCUCCGUUGAAUGGAGUUUAUCAUG | ≤ -4.2
GGAUCUUCUCGAUAUAACAAAAAAGACAAAUCUGCCACAAAGCUUGAGAGCAUCUUCGGAUGCAGAGGCGGCAGCCUUCGGUGGCGAGAUAGCGCCUACGUUCUCAACUAUGACACGCAAAACGCGUGCUCCGUUGAAUGGAAUUUAUCAUG | ≤ -4.2
GGAUCUUCUCGAUAUAACAAAAAAGACAAAUCUGCCAUAAAGCUUGAGAGCAUCUUCGGAUGCAGAGGCGGCAGCCUUCGGUGUCGCGAUAGCGCCAACGUUCUCAACUAUGACACGCAAAACGCGUGCUCCGUUGAAUGGAGUUUAUCAUG | -3
GGAUCUUCUCGAGCUAACAAAAAAGACAAAUCUGCCACAAAGCUUGAGAGCAUCUUCGGAUGCAGAGGCGGCAGCCUUCGGUGGCGCGAUAGCGCCAACGUUCUCAACUAGGACACGCAAAACGCGUGCUCCGUUGAAUGGAGUUUAUCAUG | ≤ -4.2
GGAUCUUCUCGAUAUAACAAAAAAGACAAAUCUGCCACAAAGCUUGAAAGCAUCUUCGGAUGCAGAGGCGGCAGCCUUCGGUGGCGCGAUUGCGCCAACACUCUCAACUAUGACACGCAAAACGCGUGCUCCGAUGAAUGGAGUUUAUCAUG | ≤ -4.2
GGAUCUUCUCGAUAUAACAAAAAAGACAAAUCUGCCACAAAGCUUGAGAGCAUCUUCGGAUGCAGAGGCGGCAGCCUUCGGUGGAGCGAUAGCGCCAACGUUCUCAACUAUGACACGCAAAACGCGUGUUCCGUUGAAUGGAGUUUAUCAUG | -2.79
GGAUCUUCUCGAUAUAUCAAGAAAGACAAAUCUGCCACAAAGCUUGAGAGCAUUUUCGGGUGCAGAGGCGGCAGCCUUCGGUGGCGCGAUAGCGCCAACGUUCUCAACUAUGACACGCAAAACGCGUGCUCCGUUGAAUGGAGUUUAUCAUG | -3.75
GGAUCUUCUCGAUAUAACAACCAAGACAAAUCUGCCACAAAGCUUGAGAGCAUCUUCGGAUGCAGAGGCGGCAGCCUUCGGUGGCGCGAUAGCGCCAACGUUCUCAACUAUGACACGCAAAACGCGUGCUCCGUUGAAUGGAGUUUAUCAUG | -0.829
GGAUCUUCUCGAUAUACCAAAAAAGACAAAUCUGCCACAAAGCUUGAGAGCAUCUUCGGAUGCAGAGGCGGCAGCCUUCGGUGGCGCGAUAGUGCCAACGUUCUCAACUAUGACAGGCAAAACGCGUGCUCCGUUGAAUGGAGUUUAUCAUG | -2.99
GGAUCUUCUCGAUAUAACAAAAAAGACAAAUCUGCCACAAAGCUUGAGAGCAUCUUCGGAUGCAGAGGCGGCAGCCUUCGGUGGCGCGAUAGCUCCAACGUUCUCAGCUAUGACACGCAAAACGCGUGCUCCGUUGAAUGGAGUUUAUCAUG | ≤ -4.2
GGAUCUUCUCGAUAUAACAAAAAAGACAAAUCUGCCACAAAGCUUGAGAGCAUCUUCGGAUGCAGAGGCGGCAGCCUUCGGUGGCGCGAUAGCGCCAACGUUCUCAACUAUGACACGCAAAACGCGUGCUCCGUUGAAUGGAGUUUAUCAUG | -1.08
GGAUCUUCUCGAUAUAACAAAAAAGACAAAUCUGCCACAAAGCUUGAGAGCAUCUUCGGAUGCAGAGGCGGCGGCCUUCGGUGGCACGAUAGCGCCAUCGUUCUCAACUAUGACACGCAAAACGCGUGCUCCGUUGAAUGGAGUUUAUCAUG | -3.58
GGAUCUUCUCGAUAUAACAAAAAAGACAAAUCUGCCACAGAGGUUGAGAGCAUCUUCGGAUGCAGAGGCGGCAGCCUUCGGUGGCUCGAUAGCGCCAACGUUCUCAACUAUGACACGCAAAACGCGUGCUCCGUCGAAUGGACUUUAGCAUG | ≤ -4.2
GGAUCUUCUCGAUAUAACAAAAAAGAGAAAUCUGCCACAAAGCUUGAGAGCAUCUUCGGAUGCAGAGGCGGCAGCCUUCGGUGGCGCGAUAGCGCCAACGUUCUCAACUAUGACACGCAAAACGCGUGCUCCGUUGAAUGGAGUUUAUCAUG | ≤ -4.2
GGAUCUUCUCGAUAUGACAAAAAAGACAAAUCUGCCACAAAGCUAGAGAGCAUCGUCGGAAGCAUAGGCGGCAGCCUUCGGUGGCGCGAUAGCCCUAACGGUCUCAACUAUGACACGCAAAACGCGUGCUCCGUUGAAUGGAGUUUAUCAUG | ≤ -4.2
GGAUCUUCUCGAUAUAACAAAAAAGACAAAUCUGCCACAACGCUUGAGAGCAUCUUCGGAUGCAGAGGCGGCAGCCUUCGGUGGCGCGAUAGCCCCAACGUUCUCAACUAUGACACGCAAAACGCGUGCUCCGUUGAAUGGAGUUUAUCAUG | -2.95
GGAUCUUCUCGAUAUAACCAAAAAGACAAAUCUGCCACAAAGCUUGAGAGCAUCUUCUGAUGCAGAGGCGGCAGCCUUCGGUGGCGCGUUAGCGCCAACGUUCUCAACUAUGACACGCAAAACGCGUGCUCCGUUGAAUGGAGUUUAUCAUG | -2.28
GGAUCUUCUCGAUAUAACAAAAAAGACAAAUCUGCCACAAAGCUUGAGAACAUCUUCGGAUGCAGAGGCGGCAGCCUUCGGUGGGGCGAUAGCGCAAACGUUCUCAACUAUGACACGCAAAACGCGUGCUCCGUUGAAUGGAGUUUAUCAUG | ≤ -4.2
GGAUCUUCUCGAUAUAACAAAAAAGACAAAUCUGCCACAAAGCUUCAGAGCAUCUUCGGAUGCAGAGGCGGCAGGCUUCGGUGGCGAGUGAGCGCUAACGUGCUCAACUAUGACACGCAAAACGCGUGCUCCGUUGAAUAGAGUUUAUCAUG | ≤ -4.2
